This note sets out measurements from paper PMC8221569.

The experiment deals with human histones H3.1–H4 tetramer (human) (UniProt P68431). Description: ITC; MicroCal PEAQ-ITC, 20°C, 20 mM Tris-HCl pH 7.5, 500 mM NaCl; 300 μM DNAJC9 HBD in the syringe, 30 μM (dimers) H3-H4 in the cell; one set of sites model; n = 3.

Chain of DNAJC9 HBD (171–249), GST tag removed (Q8WXX5 171-249): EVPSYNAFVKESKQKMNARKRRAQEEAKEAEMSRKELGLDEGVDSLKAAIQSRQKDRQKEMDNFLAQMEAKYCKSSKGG

“DNAJC9 HBD (171–249), GST tag removed (from UniProt Q8WXX5 171-249) (domain or fragment)” came in with a Kd of 39.5 nM. In other words, the double-digit nanomolar range.

For orientation: Kd means a measure of binding affinity in units of concentration. A low value points to higher affinity.
